Measurements taken from PMC5076566 (Cell, 2016).

Experiments:
[1] = biological target: Recombinant human vimentin, full length (2-466 AA), assembled into intermediate filaments (human, UniProt P08670 2-466); assay: transmission electron microscopy of filaments mixed with test protein
[2] = biological target: T1, His-3xFlag tagged D290V hnRNPA2 LCS (181-341 aa) (human, UniProt P22626-2 181-341, D290V); assay: co-IP
T1 sequence (looked up): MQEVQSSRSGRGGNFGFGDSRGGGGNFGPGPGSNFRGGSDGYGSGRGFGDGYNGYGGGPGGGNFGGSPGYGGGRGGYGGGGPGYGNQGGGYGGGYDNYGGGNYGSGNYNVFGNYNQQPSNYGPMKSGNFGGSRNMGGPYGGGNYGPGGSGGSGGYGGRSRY

[3] = biological target: GFP:hnRNPA1 full length (residue 2-320) (human, UniProt P09651-2 2-320); assay: co-IP
[4] = biological target: GFP:hnRNPA1 ΔRRM (186-320), the C-terminal LC domain (human, UniProt P09651-2 186-320); assay: co-IP
[5] = biological target: the molecule itself; assay: polymerisation and hydrogel formation

Row | Binder | binding result [5] | further results
1 | GFP:FUS LC domain (residue 2-214) (domain or fragment, UniProt P35637 2-214, looked up) ASNDYTQQATQSYGAYPTQPGQGYSQQSSQPYGQQSYSGYSQSTDTSGYGQSSYSSYGQSQNTGYGTQSTPQGYGSTGGYGSSQSSQSSYGQQSSYPGYGQQPAPSSTSGSYGSSSQSSSYGQPQSGSYSQQPSYGGQQQSYGQQQSYNPPQGYGQQNQYNSSSGGGGGGGGGGNYGQDQSSMSSGGGSGGGYGNQDQSGGGGSGGYGQQDRG | – | binding result [1]: binds
2 | PRPRPRPRPRPRPRPRPRPRPRPRPRPRPRPRPRPRPRPR [PR20HA peptide (20 repeats of PR with an HA epitope tag at the C-terminus)] | – | binding result [2]: binds; binding result [3]: binds; binding result [4]: binds
3 | mCherry:neurofilament light isoform head domain (2-100) (domain or fragment, human, UniProt P07196 2-100, looked up) SSFSYEPYYSTSYKRRYVETPRVHISSVRSGYSTARSAYSSYSAPVSSSLSVRRSYSSSSGSLMPSLENLDLSQVAAISNDLKSIRTQEKAQLQDLNDR | binds | –
4 | mCherry:peripherin head domain (2-99) (domain or fragment, human, UniProt P41219 2-99, looked up) SHHPSGLRAGFSSTSYRRTFGPPPSLSPGAFSYSSSSRFSSSRLLGSASPSSSVRLGSFRSPRAGAGALLRLPSERLDFSMAEALNQEFLATRSNEKQ | binds | –
5 | mCherry:neurofilament medium isoform head domain (2-104) (domain or fragment, human, UniProt P07197 2-104, looked up) SYTLDSLGNPSAYRRVTETRSSFSRVSGSPSSGFRSQSWSRGSPSTVSSSYKRSMLAPRLAYSSAMLSSAESSLDFSQSSSLLNGGSGPGGDYKLSRSNEKEQ | binds | –
6 | mCherry:vimentin head domain (2-95) (domain or fragment, human, UniProt P08670 2-95, looked up) STRSVSSSSYRRMFGGPGTASRPSSSRSYVTTSTRTYSLGSALRPSTSRSLYASSPGGVYATRSSAVRLRSSVPGVRLLQDSVDFSLADAINTE | binds | –
7 | mCherry:neurofilament heavy isoform head domain (3-100) (domain or fragment, human, UniProt P12036 3-100, looked up) SFGGADALLGAPFAPLHGGGSLHYALARKGGAGGTRSAAGSSSGFHSWTRTSVSSVSASPSRFRGAGAASSTDSLDTLSNGPEGCMVAVATSRSEKEQ | binds | –
